Publication PMC7027753, “Interaction of N‐acetyl‐L‐glutamate kinase with the PII signal transducer in the non‐photosynthetic alga Polytomella parva: Co‐evolution towards a hetero‐oligomeric enzyme” (The Febs Journal, 2019)

How the values were obtained:
CrNAGK = molecular target: T1, CrNAGK (Chlamydomonas reinhardtii, UniProt A8HPI1); test: coupled pyruvate kinase / lactate dehydrogenase NADH assay, […] nm; assay type: biochemical
T1 construct: gene CHLRE_01g015000v5; N-terminal His6 tag, E. coli LEMO-21(DE3), Ni-NTA; hexamer
T1 sequence (A8HPI1 44-340): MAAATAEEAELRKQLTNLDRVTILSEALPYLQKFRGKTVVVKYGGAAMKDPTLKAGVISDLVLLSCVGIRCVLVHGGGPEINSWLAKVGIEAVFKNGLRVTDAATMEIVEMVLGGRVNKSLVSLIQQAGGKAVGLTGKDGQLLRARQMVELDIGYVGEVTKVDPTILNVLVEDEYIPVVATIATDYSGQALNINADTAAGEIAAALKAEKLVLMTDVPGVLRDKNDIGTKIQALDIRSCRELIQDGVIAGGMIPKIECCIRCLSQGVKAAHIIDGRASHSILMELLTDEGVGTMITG

CrPII-CrNAGK = molecular target: T2, CrPII-CrNAGK (Chlamydomonas reinhardtii, UniProt A8HPI1); test: as above; assay type: biochemical; details: read-out: Arg-IC50
T2 construct: gene CHLRE_01g015000v5; His6-CrNAGK and CrPII with C-terminal Strep tag, mixed equimolar; E. coli expressed; with Nitrogen regulatory protein P-II, chloroplastic (PII signal transducer)

CrPII-PpaNAGK complex = molecular target: T3, CrPII-PpaNAGK complex (Polytomella parva, UniProt A0A2K3DLS9+A6XGV3); test: as above; assay type: biochemical
T3 construct: heterologous two-species complex, mixed equimolar: His6-PpaNAGK from residue 41 and CrPII with C-terminal Strep tag; NAGK holds arginine, PII holds 2-oxoglutarate

PpaPII-CrNAGK complex [1] = molecular target: T4, PpaPII-CrNAGK complex; test: as above; assay type: biochemical, Chlamydomonas reinhardtii (NAGK); Polytomella parva (PII); details: 50 mM NAG, 5 mM ATP, 20 mM MgCl2, pH 7.5; with PpaPII, no Gln; allosteric site of NAGK; unit implied in the sentence
T4 construct: gene NAGK; heterologous two-species complex, mixed equimolar: His6-CrNAGK and PpaPII from residue 50 with C-terminal Strep tag; NAGK holds arginine, PII holds glutamine

PpaPII-CrNAGK complex [2] = molecular target: T4, PpaPII-CrNAGK complex; test: as above; assay type: biochemical, Chlamydomonas reinhardtii (NAGK); Polytomella parva (PII); details: activation of complex inhibited by 0.12 mM arginine; 50 mM NAG, 5 mM ATP, pH 7.5; Gln site in PII Q-loop, allosteric
[3] = molecular target: Chlamydomonas reinhardtii NAGK protein (Chlamydomonas reinhardtii); test: SEC-MALS; Superose 6 Increase 10/300 GL; 10 mM Tris pH 7.8, 300 mM NaCl, 2 mM MgCl2, 0.02% NaN3, 2% glycerol; proteins alone or PII mixed in excess with NAGK (4 : 1 monomeric concentrations), with or without 5 mM glutamine; fractions checked by SDS/PAGE
[4] = molecular target: Chlamydomonas reinhardtii NAGK protein (Chlamydomonas reinhardtii); test: SPR; His6-NAGK immobilised on a Ni2+-loaded NTA chip (FC2), strep-tagged PII injected as analyte (50-1000 nM), 25 °C, HBS (10 mM HEPES, 150 mM NaCl, 2 mM MgCl2, 0.005% NP-40, pH 7.5), FC2-FC1; without effector molecules; Kd estimated from ΔRU
[5] = molecular target: Polytomella parva N-acetyl-L-glutamate kinase (Polytomella parva) (UniProt A6XGV3); test: as above
[6] = molecular target: Polytomella parva PII protein (Polytomella parva); test: SEC-MALS; Superose 6 Increase 10/300 GL; 10 mM Tris pH 7.8, 300 mM NaCl, 2 mM MgCl2, 0.02% NaN3, 2% glycerol; proteins alone or PII mixed in excess with NAGK (4 : 1 monomeric concentrations), with or without 5 mM glutamine; fractions checked by SDS/PAGE
purified protein = substrate: CC(=O)N[C@@H](CCC(=O)O)C(=O)O; test: purified protein; assay type: biochemical, Polytomella parva; details: 5 mM ATP, 20 mM MgCl2, 50 mM KCl, 50 mM imidazole pH 7.5, no arginine, no PII
[7] = molecular target: the molecule itself; test: SEC-MALS; Superose 6 Increase 10/300 GL; 10 mM Tris pH 7.8, 300 mM NaCl, 2 mM MgCl2, 0.02% NaN3, 2% glycerol; proteins alone or PII mixed in excess with NAGK (4 : 1 monomeric concentrations), with or without 5 mM glutamine; fractions checked by SDS/PAGE

T3 sequence (A0A2K3DLS9 63-205, one chain of several): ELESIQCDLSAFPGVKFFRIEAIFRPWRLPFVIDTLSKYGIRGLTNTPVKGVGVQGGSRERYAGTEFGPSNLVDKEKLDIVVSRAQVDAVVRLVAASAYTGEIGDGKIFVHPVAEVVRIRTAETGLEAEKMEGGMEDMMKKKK

Molecule: N=C(N)NCCC[C@H](N)C(=O)O [arginine]
- IC50 (CrNAGK): 120 ± 30 µM
- IC50 (CrPII-CrNAGK): 250 ± 10 µM
- IC50 (CrPII-PpaNAGK complex): 680 ± 150 µM
- IC50 (PpaPII-CrNAGK complex [1]): 70 ± 10 µM

Molecule: NC(=O)CC[C@H](N)C(=O)O [glutamine]
- EC50 (PpaPII-CrNAGK complex [2]): 1100 µM

Molecule: Chlamydomonas reinhardtii NAGK protein (enzyme)
- stoichiometry N [3]: 6

Molecule: Polytomella parva PII protein (natural protein)
- Kd [4]: 0.0863 µM
- Kd [5]: 0.0938 µM
- percent of PpaPII-PpaNAGK complex dissociation from the sensor chip at 330 sec after the end of the injection phase (RU at 110 sec taken as 100%) [5]: 60.7%
- percent of PpaPII-PpaNAGK complex dissociation from the sensor chip at 660 sec after the end of the injection phase (RU at 110 sec taken as 100%) [5]: 41.9%
- stoichiometry N [6]: 3

B1: Polytomella parva N-acetyl-L-glutamate kinase (enzyme, UniProt A6XGV3 41-329, looked up)
chain: TSDKKELTNLDRVTILSEALPYLQKFRGKTIVIKYGGAAMKDPTLKAGVITDLVLLNCVGIRTVLVHGGGPEINSWLSKVGIKPNFKNGLRVTDSATMDIVEMVLGGRVNKSLVSLIQQAGGRGVGLTGKDGQLLKARQMTELDIGHVGEVTKVDPTILNVMVNDGYIPVVATIASDPAGQALNINADTAAGEIAAALKAKKLVLMTDVPGVLRDKNDIKTKIHSLDIRGCRELIKDGIIAGGMIPKIECCIRCLAQGVDAAHIVDGRAKHSILMELLTDEGVGTMITG
notes: the full-length polypeptide has 329 amino acids; The discussion gives the transit peptide as 1-21, the results and methods as 1-40; also called PpaNAGK; NAGK; not shown: His6, N-terminal, kept
- Km (purified protein): 2350 ± 220 µM
- kcat (purified protein): 211.5 ± 4.1 s⁻¹
- stoichiometry N [7]: 6
